Data as given in patent US10273304B2, “Biomarker profiles for predicting outcomes of cancer therapy with ERBB3 inhibitors and/or chemotherapies” (Merrimack Pharmaceuticals, Inc., priority 2013, dated 2019).

Key:
[1] = tested on: locally advanced or metastatic ER+ and/or PR+, HER2 negative breast cancer; test: Randomized, double-blind phase 2 trial of exemestane +/- MM-121, breast cancer; type: in vivo, human
[2] = tested on: EGFR-wild-type non-small cell lung cancer (NSCLC)
Description: A group participating in the study was comprised of 132 patients with wild-type epidermal growth factor receptor (EGFR) who progressed on ≥1 platinum-based standard of care therapy and were EGFR tyrosine kinase inhibitor (TKI)-naïve. […] Data were collected at 10+ months.
Therefore, in this Example, Biomarker positive (BM+) is used interchangeably with Heregulin positive (HRG+). BM+ patients were defined as having detectable HRG mRNA by RNA-ISH (RNA in situ hybridization) as described above in Example 1.

[3] = tested on: advanced, platinum-resistant ovarian cancer; test: Clinical trial, ovarian cancer: paclitaxel with or without MM-121; type: in vivo, human; conditions: for HR (PFS, treatment vs control): paclitaxel+MM-121 vs paclitaxel, data at 60 weeks
Description: A clinical trial was performed that was designed to allow, inter alia, determination of associations between biomarker profiles and clinical responses. Biomarker data were measured in pre-treatment biopsies and (when available) in archived tumor samples. Results pertaining to predictive biomarkers measured in pre-treatment biopsies are described herein.
Four types of assay (each set forth above) were used to assess the six primary biomarkers assessed in this study (EGFR, ErbB2, ErbB3, ErbB4, HRG and BTC):
In total, six primary biomarkers were measured using 15 assays. For the 5 chromogenic assays (qIHC and RNA-ISH), two different overall scores were used: composite score and top-10 score. Accordingly, 20 different variables were assessed at this stage. A Cox proportional hazard model was used to rank the biomarkers. This method determines if PFS varies with biomarker values differently in the treatment arm relative to the control arm. A P-value cutoff of 0.4 was used to determine which biomarkers would be prioritized for subsequent bivariate analyses.
Based on these two thresholds, a biomarker profile positive (BM+) subpopulation is defined for subsequent analyses as: (ErbB2 levels ≤log10 5.1) AND (HRG score ≥1) (“ErbB2 low” AND “HRG positive”). Accordingly, a biomarker profile negative (BM−) subpopulation is defined as (ErbB2 levels >log10 5.1) OR (HRG score <1) This definition results in a BM+prevalence of 34% in the clinical trial population.
In FIG. 8G (progression free survival at 10+ months) and FIG. 8H (overall survival at 10+ months), the treatment arm is represented by a blue line and the control arm is represented by a black line.

ErbB3 = ErbB3 (Homo sapiens, UniProt P21860); test: Pre-clinical data and computational modeling: MM-121 potency versus ErbB2 level; conditions: when ErbB2 levels rise above about 100,000 to about 200,000 receptors per cell
[4] = BM+ (heregulin+) patients, FIG. 11
[5] = group ErbB2 < 5.1 (qIHC) & HRG > -5

C=C1C[C@@H]2[C@H](CC[C@]3(C)C(=O)CC[C@@H]23)[C@@]2(C)C=CC(=O)C=C12 [exemestane, 6-methylenandrosta-1,4-diene-3,17-dione, reference compound]
PFS of BM- (heregulin-) patients compared with BM+ (heregulin+) patients ([1]; patients treated with exemestane alone, FIG. 10E): much longer PFS

C#Cc1cccc(Nc2ncnc3cc(OCCOC)c(OCCOC)cc23)c1 [erlotinib]
best overall response: complete response (CR) [2, 4]: none
best overall response: partial response (PR) [2, 4]: 6.7%
best overall response: progressive disease (PD) [2, 4]: 53.3%
PFS of BM- (heregulin-) patients compared with BM+ (heregulin+) patients ([2]; patients treated with erlotinib alone, FIG. 12C): much longer PFS

CC(=O)O[C@H]1C(=O)[C@@]2(C)[C@H]([C@H](OC(=O)c3ccccc3)[C@]3(O)C[C@H](OC(=O)[C@H](O)[C@@H](NC(=O)c4ccccc4)c4ccccc4)C(C)=C1C3(C)C)[C@]1(OC(C)=O)CO[C@@H]1C[C@@H]2O [paclitaxel, Paclitaxel, reference compound]
PFS of BM- (heregulin-) patients compared with BM+ (heregulin+) patients ([3]; patients treated with paclitaxel alone, FIG. 8I): much longer PFS

B1: MM-121: anti-ErbB3 monoclonal antibody having VH and VL sequences as shown in SEQ ID NOs: 1 and 2 (antibody, V domains shown)
VH: EVQLLESGGGLVQPGGSLRLSCAASGFTFSHYVMAWVRQAPGKGLEWVSSISSSGGWTLYADSVKGRFTISRDNSKNTLYLQMNSLRAEDTAVYYCTRGLKMATIFDYWGQGTLVTVSS
VL: QSALTQPASVSGSPGQSITISCTGTSSDVGSYNVVSWYQQHPGKAPKLIIYEVSQRPSGVSNRFSGSKSGNTASLTISGLQTEDEADYYCCSYAGSSIFVIFGGGTKVTVL
HR (trt:ctrl) ([3]; BM+ (HER2 low & HRG+), subgroup ErbB4 score 0): 0.13
HR (trt:ctrl) ([3]; BM+, subgroup ErbB4 score >=1): 0.65
HR (trt:ctrl) ([3]; BM- (HER2 low & HRG+ not met), subgroup ErbB4 score 0): 1.05
HR (trt:ctrl) ([3]; BM-, subgroup ErbB3 score >=2): 0.86
cumulative HR ([3]; all patients with BM measurements, prevalence=100%): ≈ 1
HR (PFS, treatment vs control) ([3]; BM+ subpopulation (ErbB2 <=log10 5.1 AND HRG score >=1)): 0.37
HR (PFS, treatment vs control) ([3]; BM- subpopulation (ErbB2 >log10 5.1 OR HRG score <1)): 1.54
potency as a function of ErbB2 level (ErbB3): loses potency
estimated HR in the BM+ group, sensitivity analysis ([1]; Cox model with additive terms for treatment, biomarker groups and clinical covariates): 0.38
HR, BM population ([1]; MM-121+exemestane vs exemestane, no selection, N=115): 0.75
HR, BM negative ([1]; group ErbB2 < 5.1 (HCT)): 3.00
HR, BM population ([1]; group ErbB2 < 5.1 (HCT)): 0.82
HR, BM positive ([1]; group ErbB2 < 5.1 (HCT)): 0.62
HR, BM population ([1]; group ErbB2 < 5.1 (HCT) & HRG > -5, 55 patients): 0.66
HR, BM positive ([1]; group ErbB2 < 5.1 (HCT) & HRG > -5, PFS at about 60 weeks, N=17): 0.32
HR, BM negative ([1]; group ErbB2 < 5.1 (HCT) & HRG > -5, PFS at about 60 weeks, N=38): 0.89
HR, BM negative ([1]; group ErbB2 < 5.1 (qIHC)): 3.00
HR, BM population ([1]; group ErbB2 < 5.1 (qIHC)): 1.16
HR, BM positive ([1]; group ErbB2 < 5.1 (qIHC)): 0.84
HR, BM negative [1, 5]: 1.30
HR, BM population [1, 5]: 0.86
HR, BM positive [1, 5]: 0.32
HR, BM negative ([1]; group HRG > -5): 0.99
HR, BM positive ([1]; group HRG > -5): 0.35
HR, BM population ([1]; group HRG > -5 (RT-PCR), all patients with this biomarker): 0.68
